Residue numbers refer to the chain shown, from its start. Blank lines part the entries; values can stand above or below the binder they belong to.
Assays:
[1] = biological target: T1, Neuropilin-1 (Nrp1) endogenously expressed on human endothelial cells (HRMEC, HUVEC) (human, UniProt O14786 22-923); assay: cell-based or functional assay
[2] = biological target: T1, Neuropilin-1 (Nrp1) endogenously …; assay: cell-based or functional assay; remark: listed apart in the source
[3] = biological target: T2, human Nrp1 (soluble analyte in SPR and BLI) (human, UniProt O14786 22-856, limits assumed); assay: SPR, antibody captured on Protein A/G (GLM sensorchip), Nrp1 as analyte 0-100 nM, 1:1 Langmuir fit
T2 construct: also called hNrp1; Human Nrp1A
Method: (§1) The running buffer for this experiment and all dilutions (except where stated) were done in PBS-T-EDTA with 0.01% Tween20 [100 ul of 100% Tween20 was added to 2L of PBS-T-EDTA to make final Tween 20 concentration of 0.01%]. The GLM sensorchip was normalized and pre-conditioned as per the manufacturer's recommendations. […] The sensorchip was deactivated with 1M ethanolamine HCl in the horizontal direction for 300 sec at a flowrate of 30 μl/min. The sensorchip was stabilized with 18 sec of 0.85% phosphoric acid at a flowrate of 100 μl/min 3 times horizontally and 3 times vertically.
(§2) The baseline was stabilized by injecting PBS-T-EDTA for 60 sec at a flowrate of 100 μl/min horizontally with dissociation of 120 sec. The analyte was injected horizontally over the captured antibody for 300 sec at a flowrate of 30 μl/min and a dissociation for 1800 sec. The concentrations of the analytes were 0 nM, 6.25 nM, 12.5 nM, 25 nM, 50 nM, and 100 nM. The surface was regenerated by injecting 0.85% phosphoric acid for 18 sec at a flowrate of 100 μl/min one time horizontally and one time vertically. PBS-T-EDTA was injected for 60 sec at a flowrate of 100 μl/min one time vertically and one time horizontally.
(§3) The interspot (interactions with sensor surface) and blank (PBS-T-EDTA with 0.01% Tween20 or 0 nM analyte) were subtracted from the raw data.

cyno Nrp1 = biological target: T3, cyno Nrp1 (cyno, UniProt A0A2K5V5E7 24-858); assay: as above
T3 construct: also called cyno-Nrp1A
Method: as §1, §2, §3

rat Nrp1 = biological target: T4, rat Nrp1 (rat, UniProt Q9QWJ9 22-855, limits assumed); assay: as above
T4 construct: also called rat Nrp1A
Method: as §1, §2, §3

mouse Nrp1 = biological target: T5, mouse Nrp1 (mouse, UniProt P97333 22-856, limits assumed); assay: as above
T5 construct: also called mouse Nrp1A
Method: as §1, §2, §3

gerbil Nrp1 = biological target: T6, gerbil Nrp1 (gerbil); assay: as above
T6 construct: also called gerbil Nrp1A
Method: as §1, §2, §3

[4] = biological target: T2, human Nrp1 (soluble analyte in SPR and …); assay: SPR, antibody captured on Protein A/G (GLM sensorchip), human Nrp1A as analyte 0-100 nM, 1:1 Langmuir fit
Method: The running buffer for this experiment and all dilutions (except where stated) were done in PBS-T-EDTA with 0.01% Tween20 [100 ul of 100% Tween20 was added to 2L of PBS-T-EDTA to make final Tween 20 concentration of 0.01%]. The GLM sensorchip was normalized and pre-conditioned as per the manufacturer's recommendations. The sensorchip was activated with equal mixture of EDC/s-NHS in the horizontal direction for 300 sec at a flow rate of 30 μl/min and immobilized with Recombinant Protein NG (60 μg/ml in 10 mM acetate pH 4.5) in the horizontal direction for 300 sec at a flowrate of 30 μl/min. The sensorchip was deactivated with 1M ethanolamine HCl in the horizontal direction for 300 sec at a flowrate of 30 μl/min. The sensorchip was stabilized with 18 sec of 0.85% phosphoric acid at a flowrate of 100 μl/min 3 times horizontally and 3 times vertically.
Human Nrp1A was prepared in PBS-T-EDTA buffer at concentrations of 100, 50, 25, 12.5, 6.25, and 0 nM. A PBS-T-EDTA buffer injection was used as a double reference for the kinetic data analysis. Each of the human Nrp1A solutions and PBS-T-EDTA buffer were injected simultaneously over the 6 horizontal channels for 5 min at a flow rate of 40 μL/min followed by 30 min dissociation phase. The surfaces were regenerated by an 18 sec injection of 0.85% Phosphoric acid at a flow rate of 100 μL/min followed by an injection of sec PBS-T-EDTA at a flow rate of 100 μL/min. The interspot (interactions with sensor surface) and blank (PBS-T-EDTA with 0.01% Tween20 or 0 nM analyte) were subtracted from the raw data.

T1 sequence (O14786 22-923 V179A limits assumed): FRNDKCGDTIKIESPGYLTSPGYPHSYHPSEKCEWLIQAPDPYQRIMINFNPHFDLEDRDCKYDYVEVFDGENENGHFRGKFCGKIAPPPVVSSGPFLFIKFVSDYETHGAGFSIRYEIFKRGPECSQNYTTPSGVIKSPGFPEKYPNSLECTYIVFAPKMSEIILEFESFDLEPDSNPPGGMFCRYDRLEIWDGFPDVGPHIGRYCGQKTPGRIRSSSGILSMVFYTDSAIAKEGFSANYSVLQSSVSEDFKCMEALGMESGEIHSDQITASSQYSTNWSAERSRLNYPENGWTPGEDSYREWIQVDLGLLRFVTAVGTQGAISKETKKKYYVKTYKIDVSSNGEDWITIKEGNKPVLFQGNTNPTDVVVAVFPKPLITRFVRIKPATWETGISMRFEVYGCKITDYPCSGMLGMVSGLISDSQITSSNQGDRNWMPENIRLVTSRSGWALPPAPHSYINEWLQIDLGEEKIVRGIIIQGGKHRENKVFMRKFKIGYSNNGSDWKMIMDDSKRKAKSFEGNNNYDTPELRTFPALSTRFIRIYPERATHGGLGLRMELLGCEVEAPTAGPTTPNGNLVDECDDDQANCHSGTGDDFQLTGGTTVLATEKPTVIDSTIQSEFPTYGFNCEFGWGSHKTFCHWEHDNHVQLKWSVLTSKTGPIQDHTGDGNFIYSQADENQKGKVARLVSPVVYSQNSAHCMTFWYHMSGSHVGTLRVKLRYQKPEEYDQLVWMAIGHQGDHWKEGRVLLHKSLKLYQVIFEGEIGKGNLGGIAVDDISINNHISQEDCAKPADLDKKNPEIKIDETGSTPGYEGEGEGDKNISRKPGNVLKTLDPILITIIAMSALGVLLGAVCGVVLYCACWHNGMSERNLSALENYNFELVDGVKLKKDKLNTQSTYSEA
T2 sequence (O14786 22-856 V179A limits assumed): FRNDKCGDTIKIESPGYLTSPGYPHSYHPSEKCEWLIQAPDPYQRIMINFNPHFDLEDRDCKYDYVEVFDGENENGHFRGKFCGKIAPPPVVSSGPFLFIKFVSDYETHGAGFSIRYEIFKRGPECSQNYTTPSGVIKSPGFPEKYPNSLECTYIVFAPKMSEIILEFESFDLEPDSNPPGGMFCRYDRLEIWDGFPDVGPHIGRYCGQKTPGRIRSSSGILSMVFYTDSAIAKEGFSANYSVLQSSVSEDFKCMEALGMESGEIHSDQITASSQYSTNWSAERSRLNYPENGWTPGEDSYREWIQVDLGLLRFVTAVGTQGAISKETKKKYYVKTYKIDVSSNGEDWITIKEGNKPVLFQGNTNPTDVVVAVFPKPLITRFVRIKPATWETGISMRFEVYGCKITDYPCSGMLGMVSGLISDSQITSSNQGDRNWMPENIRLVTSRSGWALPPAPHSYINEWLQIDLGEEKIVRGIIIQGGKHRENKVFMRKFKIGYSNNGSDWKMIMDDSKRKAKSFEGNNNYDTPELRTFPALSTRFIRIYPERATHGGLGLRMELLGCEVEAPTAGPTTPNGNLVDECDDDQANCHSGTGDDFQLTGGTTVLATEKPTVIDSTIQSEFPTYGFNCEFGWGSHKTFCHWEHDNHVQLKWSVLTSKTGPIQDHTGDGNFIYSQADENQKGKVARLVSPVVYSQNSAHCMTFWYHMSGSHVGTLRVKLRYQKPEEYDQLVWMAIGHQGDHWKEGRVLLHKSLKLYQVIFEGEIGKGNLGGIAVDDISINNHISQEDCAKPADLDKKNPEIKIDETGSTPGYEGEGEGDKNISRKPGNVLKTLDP
T5 sequence (P97333 22-856 limits assumed): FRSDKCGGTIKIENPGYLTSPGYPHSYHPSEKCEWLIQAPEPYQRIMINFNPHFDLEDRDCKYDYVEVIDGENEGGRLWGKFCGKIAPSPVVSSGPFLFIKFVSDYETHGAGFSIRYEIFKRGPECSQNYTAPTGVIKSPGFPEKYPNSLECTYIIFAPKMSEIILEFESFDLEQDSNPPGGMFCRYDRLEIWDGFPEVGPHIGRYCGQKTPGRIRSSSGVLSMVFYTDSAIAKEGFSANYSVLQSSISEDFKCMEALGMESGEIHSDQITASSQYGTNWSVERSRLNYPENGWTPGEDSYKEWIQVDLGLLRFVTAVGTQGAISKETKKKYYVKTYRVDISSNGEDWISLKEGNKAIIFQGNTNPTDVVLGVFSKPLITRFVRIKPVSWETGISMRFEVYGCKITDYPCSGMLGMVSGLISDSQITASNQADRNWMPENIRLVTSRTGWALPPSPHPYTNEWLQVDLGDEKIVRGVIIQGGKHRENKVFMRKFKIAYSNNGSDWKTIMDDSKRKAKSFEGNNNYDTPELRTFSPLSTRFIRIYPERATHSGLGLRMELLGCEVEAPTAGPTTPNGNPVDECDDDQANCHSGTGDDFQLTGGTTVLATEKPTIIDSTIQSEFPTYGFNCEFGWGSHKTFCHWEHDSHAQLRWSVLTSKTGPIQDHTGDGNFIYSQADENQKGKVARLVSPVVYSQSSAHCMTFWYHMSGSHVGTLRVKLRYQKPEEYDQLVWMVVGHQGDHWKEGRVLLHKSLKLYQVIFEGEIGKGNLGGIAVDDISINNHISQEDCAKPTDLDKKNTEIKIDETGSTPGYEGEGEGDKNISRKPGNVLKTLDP
T3 sequence (A0A2K5V5E7 entry or part of it): as the sequence (O14786 22-856 V179A limits assumed) above, with H77R, F78L, R79W, P96Q, L258V, V341I, M396L, I460V, L578P counted along it
T4 sequence (Q9QWJ9 22-855 limits assumed): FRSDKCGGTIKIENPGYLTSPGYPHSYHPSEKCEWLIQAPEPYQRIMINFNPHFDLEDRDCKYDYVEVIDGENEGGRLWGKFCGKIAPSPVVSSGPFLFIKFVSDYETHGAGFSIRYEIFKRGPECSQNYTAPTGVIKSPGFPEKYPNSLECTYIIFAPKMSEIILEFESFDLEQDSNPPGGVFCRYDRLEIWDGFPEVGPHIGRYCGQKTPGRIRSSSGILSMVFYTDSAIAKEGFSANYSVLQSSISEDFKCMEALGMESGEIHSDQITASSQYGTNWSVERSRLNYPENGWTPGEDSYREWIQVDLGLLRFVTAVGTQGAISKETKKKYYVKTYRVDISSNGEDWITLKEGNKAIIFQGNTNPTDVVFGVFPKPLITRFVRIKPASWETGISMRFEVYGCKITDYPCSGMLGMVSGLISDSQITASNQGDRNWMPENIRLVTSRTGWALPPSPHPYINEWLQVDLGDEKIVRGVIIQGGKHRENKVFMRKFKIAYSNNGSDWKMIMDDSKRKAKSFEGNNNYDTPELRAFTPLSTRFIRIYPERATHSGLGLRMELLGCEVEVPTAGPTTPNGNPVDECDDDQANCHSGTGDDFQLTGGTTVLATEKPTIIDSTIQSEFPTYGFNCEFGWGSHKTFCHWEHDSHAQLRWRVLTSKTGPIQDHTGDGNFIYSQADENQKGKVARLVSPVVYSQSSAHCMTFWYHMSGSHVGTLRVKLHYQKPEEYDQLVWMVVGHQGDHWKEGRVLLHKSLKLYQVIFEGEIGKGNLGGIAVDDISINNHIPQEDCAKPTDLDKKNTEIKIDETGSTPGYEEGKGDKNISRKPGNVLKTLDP

Collapse assay IC50 [1]: 0.098 nM
VEGF induced cell integrity loss IC50 [2]: 0.74 nM
Kd [3]: 11.1 nM
Kd (cyno Nrp1): 15.2 nM
Kd (rat Nrp1): 10.5 nM
Kd (mouse Nrp1): 7.7 nM
Kd (gerbil Nrp1): 13.9 nM
Kd [4]: 11.1 nM
B1: Antibody of the invention (clone I), humanized anti-Nrp1A antibody (antibody, human IgG1, kappa, L234A L235A, V domains shown)
VH: EVQLLESGGGLVKPGGSLRLSCAASGFTFSSYAMSWVRQAPGKGLEWVSSISRTGYTYYAESVKGRFTISRDESKQTLYLQMQSLKTEDTAVYYCARVGTAFDYWGQGTLVTVSS
VL: not shown
notes: also called exemplary antibody of the invention; lead compound

Collapse assay IC50 [1]: 0.056 nM
VEGF induced cell integrity loss IC50 [2]: 12.6 nM
Kd [4]: 11.3 nM
B2: YW64.3, comparative antibody directed against Nrp1A (antibody, human IgG1, kappa, L234A L235A, V domains shown)
VH: EVQLVESGGGLVQPGGSLRLSCAASGFSFSSEPISWVRQAPGKGLEWVSSITGKNGYTYYADSVKGRFTISADTSKNTAYLQMNSLRAEDTAVYYCARWGKKVYGMDVWGQGTLVTVSS
VL: DIQMTQSPSSLSASVGDRVTITCRASQSISSYLAWYQQKPGKAPKLLIYGASSRASGVPSRFSGSGSGTDFTLTISSLQPEDFATYYCQQYMSVPITFGQGTKVEIKR
notes: Made for comparison after WO2007056470; also called anti-Nrp1A (YW64.3); Clone YW64.3

VEGF induced cell integrity loss IC50 [2]: 13.7 nM
Kd [4]: 37.5 nM
B3: YW107.4.87, comparative antibody directed against Nrp1B (antibody, human IgG1, kappa, V domains shown)
VH: EVQLVESGGGLVQPGGSLRLSCAASGFTFSSYAMSWVRQAPGKGLEWVSQISPAGGYTNYADSVKGRFTISADTSKNTAYLQMNSLRAEDTAVYYCARGELPYYRMSKVMDVWGQGTLVTVSS
VL: B2 VL with S28Y, I29F, M92L, S93G, V94S, I96P
notes: Made for comparison after WO2007056470; also called anti-Nrp1B (YW107.4.87)

— patent US20230416378A1 (Boehringer Ingelheim, published 2023)
